Data from the RNAGym collection of RNA variant scans (doi:10.1021/acssynbio.7b00057).

B1: Pistol ribozyme (parent)
chain: GGGUCGUUGUUCCAUAAUCGCGUGGAUAUGGCACGCAAGUUUCUACCGGGCACCGUAAAUGUCCGACUGGAGCCGUUCGGGCGGCUAUAAACAGACCUCAGGCCCGAAGCGUGGCGGCACCUGCCGCCGGUGGUAAAAAAGAUCGGAAGAGCACACGUCU

Variants of: B1
Assay: aptazyme ON/OFF ratio, guanine; higher = stronger switching; co-transcriptional cleavage with and without guanine

Variant	aptazyme ON/OFF ratio
U7G U8A G9U C12G C13A	1.11
U7A U8C U11A C12A	1.32
U7A U8G G9U U10C U11G C12A C13G	1.41
U7C U8C G9C U10G U11G C13U	1.1
U7G G9C U10G U11C C12G C13G	1.07
U7C U8C G9A U10G U11C C12A C13A	1.2
U8G U10A U11C C12U C13G	1.28
U7A U8G G9U U10G U11C C13A	1.12
U7A U8C G9C U10A U11C C12A	1.1
U8C G9A U10G U11G C13G	1.13
U8C U10G U11C C12U C13A	1.26
U7G U8G G9U U11A	2.18
U7G U8C G9U U10G U11C C12G C13A	1.26
U7A U8G U10A U11G C12A	1.43
U7G U8A G9A U10A U11A C13U	1.23
U7C G9C U11C C12G C13G	1.04
U8G G9A U10G U11G C12G C13G	1.44
U7G G9U U10A U11G C12G	1.26
U7C U8G G9C U10G U11G C13U	1.11
G9A U10A C12G C13G	1.33
U7G U8A G9C U10C C13A	1.01

Variant	aptazyme ON/OFF ratio
U8G U10A U11G	1.34
U7C U10A U11C C12A C13U	1.1
U7G U8A U10G U11G C12U C13G	1.16
U7G U10A C13A	1.13
U7C U8A G9C U10A C12G C13G	1.21
U7C U8G G9A U10A U11A C12U C13U	1.16
U8A G9C U10G U11A C12G	1.28
U7C U8A U10A U11G	1.22
U7C U10A U11C C12G C13U	1.22
U7C U8G G9U U10A C12A C13G	1.15
U7G U8C G9A U10C U11A C12A C13U	1.14
U7A U8G G9U U10A U11A C12G C13G	1.28
U7A U8G G9A U10C C12G C13U	1.17
U7G U8A G9U C12U C13G	1.07
U7G U8C U10G U11C C12G C13G	1.18
U8A G9U U10C C12G C13U	1.25
U7A U8A G9C U10G U11C C12A C13U	1.23
U8A G9A U11A C12U C13A	1.39
U8A G9A U10C U11G C12G C13G	1.24
U7G U8G G9C U10G U11C C12G	1.18
U7A U8G G9C U10A U11A C12U C13A	1.42

Variant	aptazyme ON/OFF ratio
U7G U8A G9C U11G C13G	1.04
U7C U8C U10G U11G C12A C13G	1.11
U7A U8A G9U C12A C13G	1.25
U7A G9C U10C C12U	1.17
U7C G9A U10A U11A C12U	1.27
U7G U8C G9A U10G U11G	1.77
U7A U8A G9U U11C C12G C13A	1.18
G9A U10A U11C C12G C13U	1.41
U8A G9A U10A U11G C12U C13U	1.4
U7C U8A U10A U11C C12A	1.09
U8G G9U U10C C12G C13A	1.26
U7A U8G G9A U10C U11G C12U C13A	1.21
U7A U8A G9C U10A U11G C12G	1.19
U7A U8C G9U U10A U11G C12A C13U	1.1
U7A G9C U10C U11C C12A	1.01
U7C U8A G9U U11A C12A C13U	1.41
G9C U10G U11G C12A C13G	1.12
U7A U8G G9A U10C U11A C12A C13G	1.11
U7A U8C U10C U11C C12G C13U	1.09
U8A U11G C12A C13G	1.17
U7C U8C G9C U10A	2.7

Variant	aptazyme ON/OFF ratio
U7G U8C U10A U11C C12U C13G	1.12
U7A U8C U10A U11G C13U	1.31
U7A G9U U10G U11C C12A C13U	1.24
U7C U8A G9U U10G U11A C12A C13G	1.09
U7C U8C G9U U10A U11C C12U C13U	1.15
U7C C12A C13U	1.19
U7C U8C G9A U10C C13G	1.35
U8A G9U U11G C12G C13G	1.24
U8A G9C U10A C12G C13U	1.14
U8G G9U U10C U11G C12A	1.12
U8A G9U U10C U11C C13U	1.03
U7G U8C U11A C12U C13G	1.14
U7G U10C U11C C12A C13G	1.08
U7A U8C G9C U10C U11G C12G C13A	1.12
U7G U8G C13U	1.7
U7G U8G G9U U10A U11C C12A	1.32
U7A U8C G9U U10G U11G C12A C13G	1.11
U7G U10A U11G C12A C13U	1.11
U7G U8A G9U U11G C13A	1.07
U8A G9C U11G C12A C13A	1.1
U8C G9C U10A U11C C12G C13A	1.23
